Like-named read-outs stand apart in the source and are kept apart here.

Drawing on patent publication US20230399641A1, this text covers % cells stained positive and % of cells in the PE-positive (RBD-bound) gate for four substances.

Assay [1] addresses full-length human ACE2 mutant AKA/K353del over-expressed on hACE2-KO 293FT cells (human) (UniProt Q9BYF1).
Assay [2] addresses full-length human ACE2 mutant K353del over-expressed on hACE2-KO 293FT cells (human) (UniProt Q9BYF1).
Assay [3] has as its target full-length human ACE2 mutant AAA/K353del over-expressed on hACE2-KO 293FT cells (human) (UniProt Q9BYF1).
The target of assay [4] is No hACE2.
Assay [5] addresses full-length human ACE2 mutant AKA/K353del over-expressed on hACE2-KO 293FT cells (human) (UniProt Q9BYF1). This is another data set of the same source.
The target of assay [6] is full-length human ACE2 mutant K353del over-expressed on hACE2-KO 293FT cells (human) (UniProt Q9BYF1). This is another data set of the same source.
The target in assay [7] is full-length human ACE2 mutant AAA/K353del over-expressed on hACE2-KO 293FT cells (human) (UniProt Q9BYF1). This is another data set of the same source.
Assay [8] deals with full-length human ACE2 mutant AKA/K353del over-expressed on hACE2-KO 293FT cells (human) (UniProt Q9BYF1). The source holds these as a separate data set.
The target is the same in assay [9]. The source holds these as a separate data set.
In assay [10] the target is full-length human ACE2 mutant AAA/K353del over-expressed on hACE2-KO 293FT cells (human) (UniProt Q9BYF1). This is another data set of the same source.

As for “receptor binding domain (RBD) of B.1.351 SARS-CoV-2 spike (residues 319-541) (from UniProt P0DTC2 319-541) (ligand)”, the % cells stained positive in assay [1] turned out to be 4%; in assay [2], 3.5%; in [3], 3.5%. In addition, the % of cells in the PE-positive (RBD-bound) gate was found to be 0.41% in assay [4], 3.48% in [5], 5.07% in assay [6] and 3.76% in [7].

Substance “receptor binding domain (RBD) of wildtype SARS-CoV-2 spike (residues 319-541) (from UniProt P0DTC2 319-541) (ligand)” registered a % cells stained positive in assay [2] of 1.8%. Moreover, the % of cells in the PE-positive (RBD-bound) gate in [8] worked out at 0.56%.

Consider “receptor binding domain (RBD) of B.1.1.7 SARS-CoV-2 spike (residues 319-541) (from UniProt P0DTC2 319-541) (ligand)”, for which the % cells stained positive in assay [1] was 1.6%; in [2] it was 1.4%; in [3], 1.6%.

With “receptor binding domain (RBD) of P.1 SARS-CoV-2 spike (residues 319-541) (from UniProt P0DTC2 319-541) (ligand)”, the results for the % cells stained positive in assay [1], in [2] and in assay [3] were 2.9%, 2.3% and 2.6%, respectively. In addition, the % of cells in the PE-positive (RBD-bound) gate in assay [9] amounted to 1.82%; in [10], 2.03%.
